Reference: the supplement of paper PMC11875167

Assay: observed amide hydrogen exchange rate constant kobs (stretched exponential fit, FD-normalized) (s^-1); higher = faster H/D exchange (less protection)
Conditions: pH 3 (pH read); temperature: 20 °C; D2O: 88%
In short: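 Jurkat tryptic peptides (LysC/trypsin, carbamidomethylated cysteines) were labeled in 88% D2O, pHread 3, 20 °C, quenched with 0.23% formic acid at 13 times from 18 to 93,600 s, in processing triplicates. MS1 uptake (Q-Exactive HF, HDExaminer, no back-exchange correction) was normalized to full-deuteration controls (24 h, 37 °C). Curves were fitted to a stretched single exponential with β = 0.8. The observed exchange rate constant kobs is the fitted rate.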

Row | Substance | observed amide hydrogen exchange rate constant kobs
1 | NLDIERPTYTNLNR | 0.00136
2 | NLLSVAYK | 0.00119
3 | NLPFDFTWK | 0.00101
4 | NLPLPPPPPPR | 0.00144
5 | NMGGPYGGGNYGPGGSGGSGGYGGR | 0.00223
6 | NNQFQALLQYADPVSAQHAK | 0.000863
7 | NNQITNNQR | 0.00134
8 | NPDDITNEEYGEFYK | 0.00176
9 | NPDDITQEEYGEFYK | 0.00161
10 | NPLPSK | 0.000929
11 | NPPGFAFVEFEDPRDAADAVR | 0.00134
12 | NQGGYGGSSSSSSYGSGR | 0.00275
13 | NQVAMNPTNTVFDAK | 0.000774
14 | NVTLPAVFK | 0.000481
15 | NWMNSLGVNPR | 0.000991
16 | PAAPPAPGPGQLTLR | 0.000936
17 | PFEVPFLK | 0.000569
18 | PFLNGLTGKPVMVK | 0.000606
19 | PFLWLAR | 0.000665
20 | PLRLPLQDVYK | 0.000685
21 | PMPNPNPNHPSSSGSFSDADLADGVSGGEGK | 0.00261
22 | PVGSLAGIGEVLGK | 0.00115
23 | PVHHGVNQLK | 0.00235
24 | PYVEEGLHPQIIIR | 0.000843
25 | QDFVQHFSQIVR | 0.00117
26 | QEMQEVQSSR | 0.00166

Row | Substance | observed amide hydrogen exchange rate constant kobs
27 | QEYDESGPSIVHRK | 0.00258
28 | QFLFRPWDVTK | 0.000828
29 | QHYIDLK | 0.00137
30 | QIPQATASMK | 0.00103
31 | QITVNDLPVGR | 0.000932
32 | QIVWNGPVGVFEWEAFAR | 0.00105
33 | QLFHPEQLITGK | 0.00131
34 | QQISLATQMVR | 0.00147
35 | QSKPVTTPEEIAQVATISANGDK | 0.000917
36 | QSLGELIGTLNAAK | 0.000915
37 | QTVAVGVIK | 0.000426
38 | QVVESAYEVIK | 0.000781
39 | RAAEDDEDDDVDTKK | 0.0039
40 | RALEQQVEEMK | 0.000806
41 | RAPFDLFENK | 0.00167
42 | REEEEFNTGPLSVLTQSVK | 0.00112
43 | RFDDAVVQSDMK | 0.00151
44 | RGILTLK | 0.000691
45 | RGLEVNK | 0.00164
46 | RHLTGEFEK | 0.00392
47 | RLNINAAK | 0.000596
48 | RNTTIPTK | 0.00112
49 | RSELIAK | 0.000984
50 | RVHPVSTMIK | 0.00129
51 | RVIISAPSADAPMFVMGVNHEK | 0.000994
52 | RVLIAAHGNSLR | 0.00149

Row | Substance | observed amide hydrogen exchange rate constant kobs
53 | SADTLWDIQK | 0.000935
54 | SADTLWGIQK | 0.000987
55 | SAEFLLHMLK | 0.00118
56 | SDALETLGFLNHYQMK | 0.00133
57 | SESPKEPEQLRK | 0.00165
58 | SFFTDDDK | 0.0032
59 | SFYPEEVSSMVLTK | 0.000867
60 | SGYLAGDK | 0.00168
61 | SIEVIENR | 0.000822
62 | SINPDEAVAYGAAVQAAILSGDK | 0.000731
63 | SIQFVDWCPTGFK | 0.00182
64 | SIYGEK | 0.00146
65 | SIYYITGESK | 0.00108
66 | SLADELALVDVLEDK | 0.00105
67 | SLAGSSGPGASSGTSGDHGELVVR | 0.00237
68 | SLEGDLEDLK | 0.00103
69 | SLTNDWEDHLAVK | 0.00185
70 | SNEILTAIIQGMR | 0.000423
71 | SNNVEMDWVLK | 0.000871
72 | SPYQEFTDHLVK | 0.00116
73 | SQIHDIVLVGGSTR | 0.00136
74 | SQLDIIIHSLK | 0.000886
75 | SSFYVNGLTLGGQK | 0.00091
76 | SSGPTSLFAVTVAPPGAR | 0.000757
77 | SSTPEEVK | 0.00152
78 | STAGDTHLGGEDFDNR | 0.00417

Row | Substance | observed amide hydrogen exchange rate constant kobs
79 | STGGAPTFNVTVTK | 0.000782
80 | STTTGHLIYK | 0.00173
81 | SVETIK | 0.000994
82 | SVPTSTVFYPSDGVATEK | 0.000911
83 | SVTEQGAELSNEER | 0.00228
84 | SVVLMSHLGRPDGVPMPDK | 0.00138
85 | SYDVPPPPMEPDHPFYSNISK | 0.00134
86 | SYELPDGQVITIGNER | 0.000908
87 | TAFDEAIAELDTLNEDSYK | 0.00156
88 | TAFQEALDAAGDK | 0.00172
89 | TAMSTPHVAEPAENEQDEQDENGAEASADLR | 0.00244
90 | TATESFASDPILYRPVAVALDTK | 0.000776
91 | TDTGEPMGR | 0.00239
92 | TENLLGSYFPK | 0.00102
93 | TEWLDGK | 0.00181
94 | TFFSFPAVVAPFK | 0.000546
95 | TFNTSTGGLLLPSDTK | 0.00131
96 | TFVNITPAEVGVLVGK | 0.000609
97 | TGTAEMSSILEER | 0.00127
98 | TIAPALVSK | 0.000597
99 | TIGGGDDSFNTFFSETGAGK | 0.00246
100 | TIIPLISQCTPK | 0.000921
101 | TITLEVEPSDTIENVK | 0.001
102 | TLAQLNPESSLFIIASK | 0.00061
103 | TLFPLIEAK | 0.000566
104 | TLGILGLGR | 0.00116

Row | Substance | observed amide hydrogen exchange rate constant kobs
105 | TLHPDLGTDK | 0.00356
106 | TLLGDGPVVTDPK | 0.000938
107 | TLNDELEIIEGMK | 0.000994
108 | TLSDYNIQK | 0.00134
109 | TLTIVDTGIGMTK | 0.000986
110 | TLVDIAK | 0.000674
111 | TLVLLMGK | 0.000552
112 | TSFFQALGITTK | 0.00062
113 | TSRPENAIIYNNNEDFQVGQAK | 0.00112
114 | TVALWDLR | 0.000702
115 | TVHAGEVGSAEVVK | 0.00152
116 | TVTNAVVTVPAYFNDSQR | 0.000806
117 | TYSYLTPDLWK | 0.000805
118 | VAASNIVQMK | 0.000933
119 | VAGQDGSVVQFK | 0.00116
120 | VALVYGQMNEPPGAR | 0.00112
121 | VAPEEHPVLLTEAPLNPK | 0.00104
122 | VAQLEQVYIR | 0.001
123 | VAVATPAK | 0.000839
124 | VAVLGASGGIGQPLSLLLK | 0.000683
125 | VDFNVPMK | 0.000994
126 | VDNDENEHQLSLR | 0.00288
127 | VDQIIMAK | 0.00126
128 | VEGTEPTTAFNLFVGNLNFNK | 0.000826
129 | VEIIANDQGNR | 0.00189
